Assay results as given in FireProtDB (doi:10.1021/bi00135a019).

Settings: Aspergillus oryzae (strain ATCC 42149 / RIB 40), DSC, reversible: yes, whole UniProt chain shown; for Tm / heat capacity change of unfolding / unfolding enthalpy (calorimetric) / unfolding enthalpy (van 't Hoff): Thermal; for denaturant m value / denaturant midpoint (higher = more stable) / unfolding free energy: Urea, MOPS 30 mM
[1] = pH 7, PIPES 30 mM, MgCl2 0.01 M
[2] = pH 7, PIPES 30 mM, MgCl2 0.02 M
[3] = pH 7, PIPES 30 mM, MgCl2 0.03 M
[4] = pH 7, PIPES 30 mM, MgCl2 0.06 M
[5] = pH 7, PIPES 30 mM, MgCl2 0.10 M
[6] = pH 7, PIPES 30 mM, MgCl2 0.20 M
[7] = pH 7, PIPES 30 mM, MgCl2 0.40 M
[8] = pH 7, PIPES 30 mM, MgCl2 0.60 M
[9] = pH 7, PIPES 30 mM, MgCl2 0.80 M

B1: Guanyl-specific ribonuclease T1 wild type, P00651 (protein)
chain: MMYSKLLTLTTLLLPTALALPSLVERACDYTCGSNCYSSSDVSTAQAAGYQLHEDGETVGSNSYPHKYNNYEGFDFSVSSPYYEWPILSSGDVYSGGSPGADRVVFNENNQLAGVITHTGASGNNFVECT
- Tm (pH 2.2, glycine 30 mM): 45.4 °C
- heat capacity change of unfolding (pH 2.2, glycine 30 mM): 1.53 kcal/mol/K
- unfolding enthalpy (calorimetric) (pH 2.2, glycine 30 mM): 89.6 kcal/mol
- unfolding enthalpy (van 't Hoff) (pH 2.2, glycine 30 mM): 114 kcal/mol
- Tm (pH 2.8, glycine 30 mM): 49 °C
- heat capacity change of unfolding (pH 2.8, glycine 30 mM): 1.64 kcal/mol/K
- unfolding enthalpy (calorimetric) (pH 2.8, glycine 30 mM): 95.3 kcal/mol
- unfolding enthalpy (van 't Hoff) (pH 2.8, glycine 30 mM): 109 kcal/mol
- Tm (pH 4, acetate 30 mM): 56.7 °C
- heat capacity change of unfolding (pH 4, acetate 30 mM): 2.47 kcal/mol/K
- unfolding enthalpy (calorimetric) (pH 4, acetate 30 mM): 102 kcal/mol
- unfolding enthalpy (van 't Hoff) (pH 4, acetate 30 mM): 114 kcal/mol
- Tm (pH 5, acetate 30 mM): 56.5 °C
- heat capacity change of unfolding (pH 5, acetate 30 mM): 1.74 kcal/mol/K
- unfolding enthalpy (calorimetric) (pH 5, acetate 30 mM): 106 kcal/mol
- unfolding enthalpy (van 't Hoff) (pH 5, acetate 30 mM): 117 kcal/mol
- denaturant m value (pH 7, 14.9 °C): 1.26 kcal/mol/M
- denaturant midpoint (higher = more stable) (pH 7, 14.9 °C): 5.65 M
- unfolding free energy (pH 7, 14.9 °C): 6.84 kcal/mol
- denaturant m value (pH 7, 21.1 °C): 1.1 kcal/mol/M
- denaturant midpoint (higher = more stable) (pH 7, 21.1 °C): 4.98 M
- unfolding free energy (pH 7, 21.1 °C): 6.03 kcal/mol
- denaturant m value (pH 7, 23.05 °C): 1.2 kcal/mol/M
- denaturant midpoint (higher = more stable) (pH 7, 23.05 °C): 4.86 M
- unfolding free energy (pH 7, 23.05 °C): 5.89 kcal/mol
- denaturant m value (pH 7, 25 °C): 1.2 kcal/mol/M
- denaturant midpoint (higher = more stable) (pH 7, 25 °C): 4.58 M
- unfolding free energy (pH 7, 25 °C): 5.55 kcal/mol
- denaturant m value (pH 7, 27 °C): 1.2 kcal/mol/M
- denaturant midpoint (higher = more stable) (pH 7, 27 °C): 4.14 M
- unfolding free energy (pH 7, 27 °C): 5.01 kcal/mol
- denaturant m value (pH 7, 29 °C): 1.27 kcal/mol/M
- denaturant midpoint (higher = more stable) (pH 7, 29 °C): 3.93 M
- unfolding free energy (pH 7, 29 °C): 4.76 kcal/mol
- denaturant m value (pH 7, 34.75 °C): 1.22 kcal/mol/M
- denaturant midpoint (higher = more stable) (pH 7, 34.75 °C): 2.92 M
- unfolding free energy (pH 7, 34.75 °C): 3.54 kcal/mol
- denaturant m value (pH 7, 40.1 °C): 1.28 kcal/mol/M
- denaturant midpoint (higher = more stable) (pH 7, 40.1 °C): 2.13 M
- unfolding free energy (pH 7, 40.1 °C): 2.58 kcal/mol
- Tm (pH 7, PIPES 30 mM, MgCl2 0 M): 48.9 °C
- heat capacity change of unfolding (pH 7, PIPES 30 mM, MgCl2 0 M): 1.35 kcal/mol/K
- unfolding enthalpy (calorimetric) (pH 7, PIPES 30 mM, MgCl2 0 M): 95.5 kcal/mol
- unfolding enthalpy (van 't Hoff) (pH 7, PIPES 30 mM, MgCl2 0 M): 118 kcal/mol
- Tm [1]: 52.4 °C
- heat capacity change of unfolding [1]: 1.22 kcal/mol/K
- unfolding enthalpy (calorimetric) [1]: 98.2 kcal/mol
- unfolding enthalpy (van 't Hoff) [1]: 117 kcal/mol
- Tm [2]: 53.5 °C
- heat capacity change of unfolding [2]: 0.86 kcal/mol/K
- unfolding enthalpy (calorimetric) [2]: 98.9 kcal/mol
- unfolding enthalpy (van 't Hoff) [2]: 117 kcal/mol
- Tm [3]: 54 °C
- heat capacity change of unfolding [3]: 0.94 kcal/mol/K
- unfolding enthalpy (calorimetric) [3]: 99.1 kcal/mol
- unfolding enthalpy (van 't Hoff) [3]: 119 kcal/mol
- Tm [4]: 55.4 °C
- heat capacity change of unfolding [4]: 1.02 kcal/mol/K
- unfolding enthalpy (calorimetric) [4]: 104 kcal/mol
- unfolding enthalpy (van 't Hoff) [4]: 120 kcal/mol
- Tm [5]: 56.6 °C
- heat capacity change of unfolding [5]: 1.11 kcal/mol/K
- unfolding enthalpy (calorimetric) [5]: 104 kcal/mol
- unfolding enthalpy (van 't Hoff) [5]: 121 kcal/mol
- Tm [6]: 58.1 °C
- heat capacity change of unfolding [6]: 0.71 kcal/mol/K
- unfolding enthalpy (calorimetric) [6]: 104 kcal/mol
- unfolding enthalpy (van 't Hoff) [6]: 122 kcal/mol
- Tm [7]: 60.1 °C
- heat capacity change of unfolding [7]: 1.22 kcal/mol/K
- unfolding enthalpy (calorimetric) [7]: 108 kcal/mol
- unfolding enthalpy (van 't Hoff) [7]: 122 kcal/mol
- Tm [8]: 61.9 °C
- heat capacity change of unfolding [8]: 1.07 kcal/mol/K
- unfolding enthalpy (calorimetric) [8]: 109 kcal/mol
- unfolding enthalpy (van 't Hoff) [8]: 125 kcal/mol
- Tm [9]: 63 °C
- heat capacity change of unfolding [9]: 1.14 kcal/mol/K
- unfolding enthalpy (calorimetric) [9]: 111 kcal/mol
- unfolding enthalpy (van 't Hoff) [9]: 121 kcal/mol
- Tm (pH 7, PIPES 30 mM, NaCl 0 M): 48.9 °C
- heat capacity change of unfolding (pH 7, PIPES 30 mM, NaCl 0 M): 1.35 kcal/mol/K
- unfolding enthalpy (calorimetric) (pH 7, PIPES 30 mM, NaCl 0 M): 95.5 kcal/mol
- unfolding enthalpy (van 't Hoff) (pH 7, PIPES 30 mM, NaCl 0 M): 118 kcal/mol
- Tm (pH 7, PIPES 30 mM, NaCl 0.05 M): 51 °C
- heat capacity change of unfolding (pH 7, PIPES 30 mM, NaCl 0.05 M): 0.93 kcal/mol/K
- unfolding enthalpy (calorimetric) (pH 7, PIPES 30 mM, NaCl 0.05 M): 99.5 kcal/mol
- unfolding enthalpy (van 't Hoff) (pH 7, PIPES 30 mM, NaCl 0.05 M): 120 kcal/mol
- Tm (pH 7, PIPES 30 mM, NaCl 0.10 M): 52.1 °C
- heat capacity change of unfolding (pH 7, PIPES 30 mM, NaCl 0.10 M): 1.6 kcal/mol/K
- unfolding enthalpy (calorimetric) (pH 7, PIPES 30 mM, NaCl 0.10 M): 101 kcal/mol
- unfolding enthalpy (van 't Hoff) (pH 7, PIPES 30 mM, NaCl 0.10 M): 119 kcal/mol
- Tm (pH 7, PIPES 30 mM, NaCl 0.20 M): 53.9 °C
- heat capacity change of unfolding (pH 7, PIPES 30 mM, NaCl 0.20 M): 1.31 kcal/mol/K
- unfolding enthalpy (calorimetric) (pH 7, PIPES 30 mM, NaCl 0.20 M): 105 kcal/mol
- unfolding enthalpy (van 't Hoff) (pH 7, PIPES 30 mM, NaCl 0.20 M): 121 kcal/mol
- Tm (pH 7, PIPES 30 mM, NaCl 0.40 M): 56.5 °C
- heat capacity change of unfolding (pH 7, PIPES 30 mM, NaCl 0.40 M): 1.4 kcal/mol/K
- unfolding enthalpy (calorimetric) (pH 7, PIPES 30 mM, NaCl 0.40 M): 107 kcal/mol
- unfolding enthalpy (van 't Hoff) (pH 7, PIPES 30 mM, NaCl 0.40 M): 121 kcal/mol
- Tm (pH 7, PIPES 30 mM, NaCl 0.60 M): 58.5 °C
- heat capacity change of unfolding (pH 7, PIPES 30 mM, NaCl 0.60 M): 1.31 kcal/mol/K
- unfolding enthalpy (calorimetric) (pH 7, PIPES 30 mM, NaCl 0.60 M): 111 kcal/mol
- unfolding enthalpy (van 't Hoff) (pH 7, PIPES 30 mM, NaCl 0.60 M): 122 kcal/mol
- Tm (pH 7, PIPES 30 mM, NaCl 0.80 M): 60.2 °C
- heat capacity change of unfolding (pH 7, PIPES 30 mM, NaCl 0.80 M): 2.11 kcal/mol/K
- unfolding enthalpy (calorimetric) (pH 7, PIPES 30 mM, NaCl 0.80 M): 111 kcal/mol
- unfolding enthalpy (van 't Hoff) (pH 7, PIPES 30 mM, NaCl 0.80 M): 124 kcal/mol
- Tm (pH 7, PIPES 30 mM, NaCl 1.20 M): 63.2 °C
- heat capacity change of unfolding (pH 7, PIPES 30 mM, NaCl 1.20 M): 1.42 kcal/mol/K
- unfolding enthalpy (calorimetric) (pH 7, PIPES 30 mM, NaCl 1.20 M): 112 kcal/mol
- unfolding enthalpy (van 't Hoff) (pH 7, PIPES 30 mM, NaCl 1.20 M): 126 kcal/mol
- Tm (pH 7, PIPES 30 mM, NaCl 1.60 M): 65.6 °C
- heat capacity change of unfolding (pH 7, PIPES 30 mM, NaCl 1.60 M): 1.37 kcal/mol/K
- unfolding enthalpy (calorimetric) (pH 7, PIPES 30 mM, NaCl 1.60 M): 115 kcal/mol
- unfolding enthalpy (van 't Hoff) (pH 7, PIPES 30 mM, NaCl 1.60 M): 125 kcal/mol
- Tm (pH 7, PIPES 30 mM): 48.9 °C
- heat capacity change of unfolding (pH 7, PIPES 30 mM): 1.35 kcal/mol/K
- unfolding enthalpy (calorimetric) (pH 7, PIPES 30 mM): 95.5 kcal/mol
- unfolding enthalpy (van 't Hoff) (pH 7, PIPES 30 mM): 119 kcal/mol
- Tm (pH 7.5, PIPES 30 mM): 46.7 °C
- heat capacity change of unfolding (pH 7.5, PIPES 30 mM): 1.71 kcal/mol/K
- unfolding enthalpy (calorimetric) (pH 7.5, PIPES 30 mM): 93.2 kcal/mol
- unfolding enthalpy (van 't Hoff) (pH 7.5, PIPES 30 mM): 121 kcal/mol
- Tm (pH 8, PIPES 30 mM): 45.8 °C
- heat capacity change of unfolding (pH 8, PIPES 30 mM): 0.88 kcal/mol/K
- unfolding enthalpy (calorimetric) (pH 8, PIPES 30 mM): 91.6 kcal/mol
- unfolding enthalpy (van 't Hoff) (pH 8, PIPES 30 mM): 116 kcal/mol
- Tm (pH 9, glycine 30 mM): 40.7 °C
- heat capacity change of unfolding (pH 9, glycine 30 mM): 0.42 kcal/mol/K
- unfolding enthalpy (calorimetric) (pH 9, glycine 30 mM): 76.5 kcal/mol
- unfolding enthalpy (van 't Hoff) (pH 9, glycine 30 mM): 114 kcal/mol
- Tm (pH 10, glycine 30 mM): 39.4 °C
- unfolding enthalpy (calorimetric) (pH 10, glycine 30 mM): 76.9 kcal/mol
- unfolding enthalpy (van 't Hoff) (pH 10, glycine 30 mM): 104 kcal/mol
